Where two headings read alike, the source gives them in different places.
Assays:
[1] = system: HIV-1; assay: Anti-HIV activity: viral core protein p24 expression in HIV-1 infected H9 T lymphocytes by RIA; format: cell-based
Experimental: (§1) In FIG. 3A, anti-HIV activity was assayed by HIV core protein p24 expression in H9 cells (Lee-Huang et al., 1990 and Lee-Huang et al., 1991). […] Anti-tumor activity was determined by in vitro proliferation of human breast tumor MAD-MB-231 cell by [^3H] thymidine incorporation (Lee-Huang et al., 1999) and the average control value was about 1.88×10^5 cpm/ml (FIG. 3B). In FIG. 3C, the cytotoxic effect was measured by the MTS colorimetric assay (Lee-Huang et al., 1999), and in FIG. 3D, the ribosome-inactivation activity was determined by in vitro translation of globin message in a rabbit reticulocyte lysate system (Lee-Huang et al., 1990 and Lee-Huang et al., 1991) and the average control value was about 5.8×10^4 cpm/ml. In each assay, triplicates were carried in two independent experiments, and the results are normalized to values obtained in control assays. Standard deviations are indicated by error bars.
(§2) Anti-HIV activity was determined by inhibition on the expression of viral core protein p24 expression by RIA (Lee-Huang et al., 1990; Lee-Huang et al., 1991 and Lee-Huang et al., 1999). Anti-tumor activity was determined by the effects of the peptide fragments on the growth of human breast tumor cell line MDA-MB-231 by [^3H] thymidine incorporated (Lee-Huang et al., 1999 and Rybak et al., 1994). HIV-integrase inhibition was assayed by the three specific reactions catalyzed by the integrase, namely, 3′ processing (specific cleavage of the dinucleotide GT from the viral substrate HIV-LTR U3), strand transfer (integration) and disintegration (Lee-Huang et al., 1995). Topological inactivation was measured by the conversion of supercoiled HIV-LTR DNA to relaxed and linear forms (Huang et al., 1992). Ribosome inactivation was determined by the translation of globin message in a rabbit reticulocyte lysate system (Lee-Huang et al., 1990 and Lee-Huang et al., 1991).
(§3) To analyze the structural and activity relationship of the anti-HIV proteins, each of the homogeneous proteolytic fragments was assayed for anti-HIV and anti-tumor activities. […] Anti-HIV activity was measured by viral core protein p24 expression in HIV-1 infected H9 T lymphocytes by RIA (Lee-Huang et al., 1990 and Lee-Huang et al., 1991). Anti-tumor activity was measured by proliferation of human breast tumor MDA231 cells (Lee-Huang et al., 1999 and Rybak et al., 1994). […] No significant difference in the anti-HIV and anti-tumor activities was detected between these core fragments.

[2] = system: human breast tumor cell line MDA-MB-231; assay: Anti-tumor activity: proliferation of MDA-MB-231 cells by [3H] thymidine incorporation; format: cell-based; details: MDA231 proliferation
Experimental: as §1, §2, §3

[3] = system: endoproteinase Lys-C and Glu-C (V8); assay: Resistance to limited proteolysis with Lys-C and V8 (SDS-PAGE); details: Lys-C or V8, up to 24 hr
Experimental: MAP30 and GAP31 were subjected to proteolysis with sequencing grade endoproteinase Lys-C and Glu-C (Promega, Madison, Wis.). Lys-C cleaves at the carboxylic side of lysine (Elliott et al., 1986). Glu-C, also known as V8 protease, cleaves specifically at the carboxylic side of glutamic acid in the presence of ammonium ion (Drapeau et al., 1972). In the absence of ammonium ion, Glu-C acts at both aspartic and glutamic acids. The reaction buffers for Lys-C and V8 were 25 mM Tris-HCl, pH 7.8, 1 mM EDTA and 50 mM ammonium bicarbonate, pH 7.8 respectively.
FIGS. 1A-1D show time course SDS-PAGE patterns of Lys-C and V8 digestions of MAP30 and GAP31. Three major fragments were produced in each case. These fragments are designated MLF25, MLF21, MLF0.8 (MAP30 Lys-C Fragments of 25, 21, and 0.8 kDa, FIG. 1A), MVF25, MVF21, MVF0.8 (MAP30 V8 Fragments of 25, 21, and 0.8 kDa, FIG. 1B), GLF26, GLF22, GLF0.6 (GAP31 Lys-C Fragments of 26, 22 and 0.6 kDa, FIG. 1C), and GVF26, GVF22, GVF0.6 (GAP31 V8 Fragments of 26, 22 and 0.6 kDa, FIG. 1D). The smaller peptides are C-terminal fragments produced during proteolysis and they are sensitive to further digestion to short peptides.

[4] = system: supercoiled HIV-LTR DNA; assay: Topological inactivation: conversion of supercoiled HIV-LTR DNA to relaxed and linear forms; format: biochemical; details: supercoiled HIV-LTR into relaxed and linear forms
Experimental: (§4) In FIG. 4A, the inhibition on HIV-integrase was assayed by the 3′-processing reaction of HIV-1 integrase (Lee-Huang et al., 1995). This activity was assayed by specific cleavage of the dinucleotide GT from 5′-[^32P] labeled 21-mer of the HIV-U3-LTR substrate. The effect was measured by the inhibition of the formation of labeled 19-mer product by autoradiography of urea gels. […] In FIG. 4B, topological inactivation was measured by the conversion of supercoiled HIV-LTR DNA (S) into relaxed (R) and linear (L) forms by agarose gel electrophoresis (Huang et al., 1992). Samples that cause topological inactivation show L and R and no S forms.
as §2

[5] = system: ribosome (rabbit reticulocyte lysate system); assay: Ribosome inactivation: translation of globin message in a rabbit reticulocyte lysate system; format: biochemical; details: [3H]-labelled leucine incorporation
Experimental: as §1, §2
The anti-HIV and anti-tumor fragments, MLF25, MLF21, MVF25, MVF21, GLF26, GLF22, GVF26, GVF22 are active in HIV-integrase inhibition as assayed by the 3′-processing (FIG. 4A), strand transfer and disintegration (data not shown) as well as in DNA topological inactivation as assayed by the conversion of supercoiled HIV-LTR into relaxed and linear forms (FIG. 4B). […] Moreover, the C-terminal regions of these proteins are required for N-glycosidase activity, but not for antiviral and anti-tumor activities.

[6] = biological target: T1, HIV-1 integrase (Human immunodeficiency virus type 1 group M subtype B, UniProt P04585); assay: HIV-integrase inhibition (3'-processing, strand transfer, disintegration); format: biochemical; details: strand transfer and disintegration
T1 construct: assayed by the 3′-processing reaction of HIV-1 integrase
Experimental: as §4, §2

| Molecule | anti-HIV activity [1] | anti-tumor activity [2] | resistance to proteolysis [3] | DNA topological inactivation [4] | ribosome inactivation [5] | HIV-integrase inhibition [6] | anti-HIV activity ([1]; listed as peak 3) | anti-tumor activity ([2]; listed as peak 3) |
| --- | --- | --- | --- | --- | --- | --- | --- | --- |
| GVF0.6: GAP31 V8 C-terminal fragment, residues 196-251 of SEQ ID NO:2 (NKWGKLSFQIRTSGANGMFSEAVELERANGKKYYVTAVDQVKPKIALLKFVDKDPK; listed as Gelonium multiflorum) | neither anti-HIV nor anti-tumor activity | neither anti-HIV nor anti-tumor activity | – | – | – | – | – | – |
| GVF22: GAP31 V8 fragment, 21-22 kDa, residues 1-195 of SEQ ID NO:2 | – | – | remained intact even after 24 hr of proteolysis | active | none of these fragments are active | active | – | – |
| GLF22: GAP31 Lys-C fragment, 21-22 kDa, residues 11-200 of SEQ ID NO:2 | Most of the anti-HIV and anti-tumor activity | Most of the anti-HIV and anti-tumor activity | – | active | none of these fragments are active | active | – | – |
| GLF0.6: GAP31 Lys-C C-terminal fragment, residues 201-251 of SEQ ID NO:2 (LSFQIRTSGANGMFSEAVELERANGKKYYVTAVDQVKPKIALLKFVDKDPK; listed as Gelonium multiflorum) | neither anti-HIV nor anti-tumor activity | neither anti-HIV nor anti-tumor activity | – | – | – | – | no activity was found | no activity was found |
| GVF26: GAP31 V8 fragment, 25-26 kDa, residues 1-219 of SEQ ID NO:2 | – | – | – | active | none of these fragments are active | active | – | – |
| GLF26: GAP31 Lys-C fragment, 25-26 kDa, residues 11-226 of SEQ ID NO:2 | Most of the anti-HIV and anti-tumor activity | Most of the anti-HIV and anti-tumor activity | remained intact even after 24 hr of proteolysis | active | none of these fragments are active | active | – | – |
| MVF25: MAP30 V8 fragment, 24-25 kDa, residues 1-219 of SEQ ID NO:1 (protein, listed as Momordica charantia) DVNFDLSTATAKTYTKFIEDFRATLPFSHKVYDIPLLYSTISDSRRFILLDLTSYAYETISVAIDVTNVYVVAYRTRDVSYFFKESPPEAYNILFKGTRKITLPYTGNYENLQTAAHKIRENIDLGLPALSSAITTLFYYNAQSAPSALLVLIQTTAEAARFKYIERHVAKYVATNFKPNLAIISLENQWSALSKQIFLAQNQGGKFRNPVDLIKPTGE | – | – | – | active | none of these fragments are active | active | – | – |
| MLF21: MAP30 Lys-C fragment, 20-21 kDa, residues 13-195 of SEQ ID NO:1 (protein, listed as Momordica charantia) TYTKFIEDFRATLPFSHKVYDIPLLYSTISDSRRFILLDLTSYAYETISVAIDVTNVYVVAYRTRDVSYFFKESPPEAYNILFKGTRKITLPYTGNYENLQTAAHKIRENIDLGLPALSSAITTLFYYNAQSAPSALLVLIQTTAEAARFKYIERHVAKYVATNFKPNLAIISLENQWSALSK | – | – | – | active | none of these fragments are active | active | – | – |
| MLF25: MAP30 Lys-C fragment, 24-25 kDa, residues 13-232 of SEQ ID NO:1 (protein, listed as Momordica charantia) TYTKFIEDFRATLPFSHKVYDIPLLYSTISDSRRFILLDLTSYAYETISVAIDVTNVYVVAYRTRDVSYFFKESPPEAYNILFKGTRKITLPYTGNYENLQTAAHKIRENIDLGLPALSSAITTLFYYNAQSAPSALLVLIQTTAEAARFKYIERHVAKYVATNFKPNLAIISLENQWSALSKQIFLAQNQGGKFRNPVDLIKPTGERFQVTNVDSDVVK | – | – | remained intact even after 24 hr of proteolysis | active | none of these fragments are active | active | – | – |
| MLF0.8: MAP30 Lys-C C-terminal fragment, residues 196-263 of SEQ ID NO:1 (protein, listed as Momordica charantia) QIFLAQNQGGKFRNPVDLIKPTGERFQVTNVDSDVVKGNIKLLLNSRASTADENFITTMTLLGESVVN | neither anti-HIV nor anti-tumor activity | neither anti-HIV nor anti-tumor activity | – | – | – | – | – | – |
| MVF0.8: MAP30 V8 C-terminal fragment, residues 188-263 of SEQ ID NO:1 (protein, listed as Momordica charantia) NQWSALSKQIFLAQNQGGKFRNPVDLIKPTGERFQVTNVDSDVVKGNIKLLLNSRASTADENFITTMTLLGESVVN | neither anti-HIV nor anti-tumor activity | neither anti-HIV nor anti-tumor activity | – | – | – | – | – | – |
| MVF21: MAP30 V8 fragment, 20-21 kDa, residues 1-187 of SEQ ID NO:1 (protein, listed as Momordica charantia) DVNFDLSTATAKTYTKFIEDFRATLPFSHKVYDIPLLYSTISDSRRFILLDLTSYAYETISVAIDVTNVYVVAYRTRDVSYFFKESPPEAYNILFKGTRKITLPYTGNYENLQTAAHKIRENIDLGLPALSSAITTLFYYNAQSAPSALLVLIQTTAEAARFKYIERHVAKYVATNFKPNLAIISLE | – | – | remained intact even after 24 hr of proteolysis | active | none of these fragments are active | active | – | – |

— patent US6652861B1, “Anti-HIV and anti-tumor peptides and truncated polypeptides of MAP30” (priority 1999, dated 2003)
